# Reference: patent US20250003978A1, “DIAGNOSIS AND TREATMENT OF ANTI-PF4 INDUCED THROMBOCYTOPENIA” (The Regents of the University of California, priority 2021, published 2025)
# Where a chain is given by its changes, count along the chain named. Names and notes keep the numbering of the source. Positions of bridges follow the written chain, without caps; N, C: chain ends. Non-standard residues stand in square brackets, D forms with d. Residues, ends and D or L forms follow the SMILES beside them. hArg = N=C(N)NCCCC[C@H](N)C(=O)O; Mpa = O=C(O)CCS
# B1: PF4 (platelet factor 4, chemokine CXCL4), preparation generated in the inventors' lab (ligand)
# chain: EAEEDGDLQCLCVKTTSQVRPRHITSLEVIKAGPHCPTAQLIATLKNGRKICLDLQAPLYKKIIKKLLES
# notes: Made in E. coli BL21 from pET28a as inclusion bodies, purified on Ni-NTA under denaturing conditions and renatured; also called WT PF4; wild-type PF4; not shown: Vector-derived N-terminal tag and leader of pET28a (His tag used for Ni-NTA purification, BamHI/EcoRI insert)
# B2: R20E/R22E/K46E/R49E: PF4 (SEQ ID NO: 1) quadruple mutant defective in site 2 binding; dominant-negative antagonist (protein)
# chain: B1 chain with R20E, R22E, K46E, R49E
# modifications: Description ofsequence: PF4 sp|P02776|32-101
# notes: dominant-negative antagonist
# B3: K46E/R49E: PF4 (SEQ ID NO: 1) double mutant, Lys46 and Arg49 mutated to Glu (protein)
# chain: B1 chain with K46E, R49E
# modifications: Description ofsequence: PF4 sp|P02776|32-101
# B4: R20E/R22E: PF4 (SEQ ID NO: 1) double mutant, Arg20 and Arg22 mutated to Glu (protein)
# chain: B1 chain with R20E, R22E
# modifications: Description ofsequence: PF4 sp|P02776|32-101
# What was measured:
# [1] = molecular target: T1, soluble integrin αIIbβ3 (Homo sapiens, UniProt P05106+P08514); assay: ELISA-type integrin binding assay, soluble αIIbβ3; details: 1 mM Mn2+
# T1 construct: Soluble recombinant αIIbβ3 or αvβ3 (AgroBio, 1 μg/ml); purchased AgroBio
# Method: (§1) FIG. 2. PF4 specifically binds to soluble αIIbβ3 and αvβ3 in ELISA-type binding assays in 1 mM Mn^2+. FIG. 2a PF4 binds to soluble integrins in 1 mM Mn^2+ in ELISA-type binding assays. PF4 was immobilized to wells of 96-well microtiter plate and incubated with soluble αIIbβ3 or αvβ3 (1 μg/ml) in Tyrode-HEPES buffer with 1 mM Mn^2+ (to activate integrins) for 1 hr at room temperature and bound integrins were quantified using anti-β3 (mAb AV10) and HRP-conjugated anti-mouse IgG. Data are shown as means+/−SD in triplicate experiments. […] FIG. 2b Binding of authentic PF4 (Invitrogen) to integrins. Binding assays were performed as described in (a). PF4 (6.25 μg/ml) was used. Data are shown as means+/−SD in triplicate experiments. […] FIGS. 2c and d The binding of PF4 to integrins was suppressed by the distintegrin domain of ADAM15 fused to GST (ADAM15 disintegrin), but not by control GST. To establish the specificity of PF4 binding to soluble integrins αIIbβ3 (b) and αvβ3 (c), if ADAM15 disintegrin, which is known to bind to integrins αIIbβ3 (22) and αvβ3 (21), suppress the binding. […] Data are shown as means+/−SD in triplicate experiments. […] Bound integrins were quantified as described in (a). […]
# (§2) Wells of 96-well microtiter plates were coated with PF4. […] Bound αIIbβ3 or αvβ3 was measured using anti-integrin β3 mAb (AV-10) followed by HRP-conjugated goat anti-mouse IgG and peroxidase substrates.
# [2] = molecular target: T2, soluble integrin αvβ3 (Homo sapiens, UniProt P05106+P06756); assay: ELISA-type integrin binding assay, soluble αvβ3; details: competitor 100 μg/ml; immobilized PF4 (12.5 g/ml); 1 mM Mn2+
# T2 construct: Soluble recombinant αIIbβ3 or αvβ3 (AgroBio, 1 μg/ml); purchased AgroBio
# T2 sequence (P06756 31-992 limits assumed): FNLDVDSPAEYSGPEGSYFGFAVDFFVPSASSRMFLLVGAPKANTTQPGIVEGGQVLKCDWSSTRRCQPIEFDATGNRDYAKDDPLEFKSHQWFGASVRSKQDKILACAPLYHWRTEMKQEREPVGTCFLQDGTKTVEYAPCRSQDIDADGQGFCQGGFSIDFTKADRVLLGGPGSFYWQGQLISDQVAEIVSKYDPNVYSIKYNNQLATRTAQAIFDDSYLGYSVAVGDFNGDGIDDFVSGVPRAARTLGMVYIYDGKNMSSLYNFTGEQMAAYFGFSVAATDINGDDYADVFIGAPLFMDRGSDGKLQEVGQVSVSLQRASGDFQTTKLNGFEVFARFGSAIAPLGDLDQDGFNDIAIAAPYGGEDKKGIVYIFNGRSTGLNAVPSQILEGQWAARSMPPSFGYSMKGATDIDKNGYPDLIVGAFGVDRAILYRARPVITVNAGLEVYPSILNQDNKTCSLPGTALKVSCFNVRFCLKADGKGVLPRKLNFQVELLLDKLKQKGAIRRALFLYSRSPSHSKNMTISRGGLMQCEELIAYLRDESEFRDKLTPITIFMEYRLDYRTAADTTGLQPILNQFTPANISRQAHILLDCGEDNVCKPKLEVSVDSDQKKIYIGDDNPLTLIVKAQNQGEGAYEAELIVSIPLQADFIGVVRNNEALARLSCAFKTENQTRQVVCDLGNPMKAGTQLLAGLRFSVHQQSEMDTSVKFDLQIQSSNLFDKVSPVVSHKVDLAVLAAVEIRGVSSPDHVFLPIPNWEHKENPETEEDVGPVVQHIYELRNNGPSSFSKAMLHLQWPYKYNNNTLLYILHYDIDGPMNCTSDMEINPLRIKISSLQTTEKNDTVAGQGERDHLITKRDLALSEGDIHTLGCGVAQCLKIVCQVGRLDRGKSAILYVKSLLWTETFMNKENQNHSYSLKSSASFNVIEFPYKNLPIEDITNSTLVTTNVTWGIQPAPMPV
# T2 sequence (P05106 27-718 limits assumed): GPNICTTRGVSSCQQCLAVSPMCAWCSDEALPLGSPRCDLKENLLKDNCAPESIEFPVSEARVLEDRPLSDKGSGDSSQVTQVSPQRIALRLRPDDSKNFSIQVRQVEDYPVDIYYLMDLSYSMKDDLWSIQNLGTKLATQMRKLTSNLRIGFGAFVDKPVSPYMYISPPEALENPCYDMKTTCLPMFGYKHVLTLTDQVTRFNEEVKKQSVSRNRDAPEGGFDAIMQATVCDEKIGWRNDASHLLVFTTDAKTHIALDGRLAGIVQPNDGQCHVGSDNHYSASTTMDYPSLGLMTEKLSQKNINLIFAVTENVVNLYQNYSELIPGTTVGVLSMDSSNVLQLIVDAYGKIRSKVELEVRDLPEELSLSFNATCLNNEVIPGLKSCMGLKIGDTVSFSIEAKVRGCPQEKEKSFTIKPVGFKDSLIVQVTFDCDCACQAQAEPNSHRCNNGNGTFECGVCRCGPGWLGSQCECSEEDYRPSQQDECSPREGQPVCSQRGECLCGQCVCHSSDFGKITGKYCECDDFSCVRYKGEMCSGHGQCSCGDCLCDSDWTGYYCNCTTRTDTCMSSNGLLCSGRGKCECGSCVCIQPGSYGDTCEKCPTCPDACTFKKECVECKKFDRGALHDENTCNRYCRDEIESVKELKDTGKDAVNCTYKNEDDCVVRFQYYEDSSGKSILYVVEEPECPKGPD
# Method: as §1, §2
# [3] = molecular target: T3, soluble recombinant integrin αvβ3 (UniProt P06756 31-992; P05106 27-718); assay: ELISA-type binding: immobilized PF4, soluble αvβ3 1 µg/ml, 1 mM Mn2+, detection with anti-β3 mAb AV10
# T3 construct: Bought soluble heterodimer, used at 1 µg/ml; also called soluble αvβ3
# T3 sequence (P06756 31-992, chain 1 of 2): as the sequence (P06756 31-992 limits assumed) above
# T3 sequence (P05106 27-718, chain 2 of 2): as the sequence (P05106 27-718 limits assumed) above
# Method: (§4) Data are shown as means+/−SD in triplicate experiments. […] Binding assays were performed as described in (a). […] Data are shown as means+/−SD in triplicate experiments. […] Data are shown as means+/−SD in triplicate experiments. […] Assays were performed as described in (a). Data is shown as means+/−SD in triplicate experiments. […] Wells were incubated with soluble integrins (1 μg/ml) in Tyrode-HEPES buffer with different cations (1 mM). Bound integrins were quantified as described in (a). Data are shown as means+/−SD in triplicate experiments.
# [4] = molecular target: T4, soluble recombinant integrin αIIbβ3 (UniProt P08514 32-993; P05106 27-718); assay: ELISA-type binding: immobilized PF4, soluble αIIbβ3 1 µg/ml, 1 mM Mn2+, detection with anti-β3 mAb AV10
# T4 construct: Bought soluble heterodimer, used at 1 µg/ml; also called soluble αIIbβ3
# Method: as §4
# [5] = molecular target: T2, soluble integrin αvβ3; assay: ELISA-type integrin activation assay, soluble αvβ3 binding to immobilized γC399tr; assay type: biochemical; details: for ability of PF4 mutant to mediate RTO/PF4-induced αvβ3 activation: PF4 mutant in complex with anti-PF4 RTO, 1 mM Ca2+
# Method: FIG. 4. […] FIG. 4a. Anti-PF4 (RTO) markedly enhances PF4-induced activation of soluble αvβ3 in 1 mM Ca^2+ in ELISA-type activation assays. Fibrinogen fragment γC399tr (151-399 segment of fibrinogen γ chain, a specific ligand for αvβ3) was immobilized to wells of 96-well microtiter plate. […] Anti-PF4 (RTO or KKO, 10 μg/ml) were added (without heparin). After washing, bound integrins were quantified using anti-β3 (mAb AV10) and HRP-conjugated anti-mouse IgG. Mouse IgG (10 μg/ml) and no antibody were used as negative controls. […] FIG. 4b. […] Commercial PF4 was used instead of our own PF4 preparation. Activation assays were performed as described in a. […] FIG. 4c. Point mutations in the predicted integrin-binding site (site 2) of PF4 suppressed activation of αvβ3 by the anti-PF4/PF4 complex. […] FIG. 4d. The R20E/R22E/K46E/R49E mutant suppressed integrin activation by the RTO/PF4 complex. WT PF4 (0.5 μg/ml) and excess PF4 mutant (5 or 10 μg/ml) were used.
# (§3) Wells of 96-well microtiter plates were coated with γC390-411 (a specific ligand for αIIbβ3) or γC399tr (a specific ligand for αvβ3). Remaining protein binding sites were blocked with BSA. Soluble recombinant αIIbβ3 or αvβ3 (AgroBio, 1 μg/ml) was pre-incubated with chemokines PF4 or anti-PF4/PF4 for 10 min at room temperature and was added to the wells and incubated in HEPES-Tyrodes buffer with 1 mM CaCl2 for 1 h at room temperature. After unbound αIIbβ3 or αvβ3 was removed by rinsing the wells with binding buffer, bound αIIbβ3 or αvβ3 was measured using anti-integrin B3 mAb (AV-10) followed by HRP-conjugated goat anti-mouse IgG and peroxidase substrates.
# [6] = molecular target: T1, soluble integrin αIIbβ3; assay: ELISA-type integrin activation assay, soluble αIIbβ3 binding to immobilized γC390-411; assay type: biochemical; details: for ability of PF4 mutant to mediate RTO/PF4-induced αIIbβ3 activation: PF4 mutant in complex with anti-PF4 RTO, 1 mM Ca2+
# Method: FIG. 3. […] FIG. 3a. Anti-PF4 (RTO) markedly enhances PF4-induced activation of soluble αIIbβ3 in 1 mM Ca^2+ in ELISA-type activation assays in a dose-dependent manner at physiological concentrations of PF4 (below 1 μg/ml). The fibrinogen fragments γC390-411 (a specific ligand for αIIbβ3) was immobilized to wells of 96-well microtiter plate. […] Anti-PF4 (RTO or KKO, 10 μg/ml) were added (without heparin). After washing, bound integrins were quantified using anti-β3 (mAb AV10) and HRP-conjugated anti-mouse IgG. Mouse IgG (10 μg/ml) and no antibody were used as negative controls. Data are shown as means+/−SD in triplicate experiments. FIG. 3b. […] Commercial PF4 was used instead of our own PF4 preparation. Activation assays were performed as described in a. […] FIG. 3c. Point mutations in the predicted integrin-binding site (site 2) of PF4 suppressed activation of αIIbβ3 by the anti-PF4/PF4 complex. […] FIG. 3d. The R20E/R22E/K46E/R49E mutant suppressed integrin activation by the anti-PF4/PF4 complex. WT PF4 ([…]) and excess PF4 mutant (5 or 10 μg/ml) were used.
# as §3
molecule,measurement,setting,value
"ADAM15 disintegrin: disintegrin domain of ADAM15 fused to GST, known to bind integrins αIIbβ3 and αvβ3",suppression of αIIbβ3 binding to immobilized PF4,"[1]; competitor 100 μg/ml, immobilized PF4 (12.5 g/ml)",suppressed
same,suppression of αvβ3 binding to immobilized PF4,[2],suppressed
N=C(N)NCCCC[C@@H]1NC(=O)CCSSC[C@@H](C(N)=O)NC(=O)[C@@H]2CCCN2C(=O)[C@H](Cc2c[nH]c3ccccc23)NC(=O)[C@H](CC(=O)O)NC(=O)CNC1=O [eptifibatide] ([Mpa][hArg]GDWPC-NH2; disulfide 1-7),effect of integrin antagonists on PF4 binding to αIIbβ3,"[1]; PF4 coated at 50 μg/ml, mAb 7E3 10 μg/ml, eptifibatide 0.65 μg/ml, cyclic RGDfV 10 μM",weak inhibition
B1,Kd,[3],< 1 µg/mL
same,Kd,[4],< 1 µg/mL
B2,ability of PF4 mutant to mediate RTO/PF4-induced αvβ3 activation,[5],most effectively reduced
same,suppression of αvβ3 activation by the RTO/PF4 complex (antagonist effect),"[5]; WT PF4 (0.5 μg/ml) and excess PF4 mutant (5 or 10 μg/ml), RTO",suppressed
same,ability of PF4 mutant to mediate RTO/PF4-induced αIIbβ3 activation,[6],most effectively reduced
same,suppression of αIIbβ3 activation by the anti-PF4/PF4 complex (antagonist effect),"[6]; WT PF4 (0.5 g/ml) and excess PF4 mutant (5 or 10 μg/ml), RTO",suppressed
B3,ability of PF4 mutant to mediate RTO/PF4-induced αvβ3 activation,[5],reduced ability
same,ability of PF4 mutant to mediate RTO/PF4-induced αIIbβ3 activation,[6],reduced ability
B4,ability of PF4 mutant to mediate RTO/PF4-induced αvβ3 activation,[5],reduced ability
same,ability of PF4 mutant to mediate RTO/PF4-induced αIIbβ3 activation,[6],reduced ability
